From patent US20120039802A1 (published 2012)
fluorescein = fluorescein label on the side chain of the C-terminal Lys

Columns and labels:
[1] = molecular target: T1, cMet-Fc fusion protein (extracellular domain of the cMet receptor expressed as an Fc-fusion protein) (human, UniProt P08581 25-932); test: fluorescence polarization, 20 nM fluorescein peptide, cMet-Fc varied
T1 construct: extracellular domain; also called soluble cMet-Fc-fusion protein; soluble cMet receptor; not shown: Fc part
Method: (§1) Fluorescence anisotropy measurements were performed in 384-well microplates in a volume of 10 μL in binding buffer (PBS, 0.01% Tween-20, pH 7.5) using a Tecan Polarion fluorescence polarization plate reader ([…]). […] Binding mixtures were equilibrated for 10 minutes in the microplate at 30 C before measurement. The observed change in anisotropy was fit to the equation below via nonlinear regression to obtain the apparent KD. This equation (1) assumes that the synthetic peptide and cMet form a reversible complex in solution with 1:1 stoichiometry.

[2] = molecular target: T2, mouse cMet (mouse, UniProt P16056 25-931, limits assumed); test: fluorescence polarization, mouse target
T2 construct: Construct not described; also called Kd (mouse) target
T2 sequence (P16056 25-931 limits assumed): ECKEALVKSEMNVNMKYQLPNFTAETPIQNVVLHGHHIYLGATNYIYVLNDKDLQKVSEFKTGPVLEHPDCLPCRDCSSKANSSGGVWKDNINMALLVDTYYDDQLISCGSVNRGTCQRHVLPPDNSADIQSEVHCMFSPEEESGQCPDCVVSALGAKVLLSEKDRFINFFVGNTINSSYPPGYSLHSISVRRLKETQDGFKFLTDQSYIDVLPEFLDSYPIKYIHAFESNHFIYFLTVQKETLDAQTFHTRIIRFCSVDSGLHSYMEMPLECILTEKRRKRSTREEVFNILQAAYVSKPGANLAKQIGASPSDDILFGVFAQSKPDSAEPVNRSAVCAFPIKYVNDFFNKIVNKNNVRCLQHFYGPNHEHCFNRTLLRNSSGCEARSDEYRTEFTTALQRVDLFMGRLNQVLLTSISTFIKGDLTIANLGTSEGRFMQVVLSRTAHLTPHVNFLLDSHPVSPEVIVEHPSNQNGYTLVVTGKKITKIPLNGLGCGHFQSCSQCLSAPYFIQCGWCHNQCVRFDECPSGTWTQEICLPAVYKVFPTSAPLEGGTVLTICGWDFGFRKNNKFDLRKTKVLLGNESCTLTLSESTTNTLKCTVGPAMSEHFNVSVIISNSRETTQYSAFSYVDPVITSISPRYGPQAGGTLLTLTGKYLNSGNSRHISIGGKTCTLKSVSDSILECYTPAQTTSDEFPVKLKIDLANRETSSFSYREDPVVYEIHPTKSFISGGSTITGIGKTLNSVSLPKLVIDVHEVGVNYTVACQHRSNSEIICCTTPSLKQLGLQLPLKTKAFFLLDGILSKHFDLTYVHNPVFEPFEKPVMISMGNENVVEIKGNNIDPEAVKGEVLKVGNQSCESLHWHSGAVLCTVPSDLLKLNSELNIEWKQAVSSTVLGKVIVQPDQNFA
Method: as §1

[3] = molecular target: T2, mouse cMet; test: fluorescence polarization

T1 sequence (P08581 25-932): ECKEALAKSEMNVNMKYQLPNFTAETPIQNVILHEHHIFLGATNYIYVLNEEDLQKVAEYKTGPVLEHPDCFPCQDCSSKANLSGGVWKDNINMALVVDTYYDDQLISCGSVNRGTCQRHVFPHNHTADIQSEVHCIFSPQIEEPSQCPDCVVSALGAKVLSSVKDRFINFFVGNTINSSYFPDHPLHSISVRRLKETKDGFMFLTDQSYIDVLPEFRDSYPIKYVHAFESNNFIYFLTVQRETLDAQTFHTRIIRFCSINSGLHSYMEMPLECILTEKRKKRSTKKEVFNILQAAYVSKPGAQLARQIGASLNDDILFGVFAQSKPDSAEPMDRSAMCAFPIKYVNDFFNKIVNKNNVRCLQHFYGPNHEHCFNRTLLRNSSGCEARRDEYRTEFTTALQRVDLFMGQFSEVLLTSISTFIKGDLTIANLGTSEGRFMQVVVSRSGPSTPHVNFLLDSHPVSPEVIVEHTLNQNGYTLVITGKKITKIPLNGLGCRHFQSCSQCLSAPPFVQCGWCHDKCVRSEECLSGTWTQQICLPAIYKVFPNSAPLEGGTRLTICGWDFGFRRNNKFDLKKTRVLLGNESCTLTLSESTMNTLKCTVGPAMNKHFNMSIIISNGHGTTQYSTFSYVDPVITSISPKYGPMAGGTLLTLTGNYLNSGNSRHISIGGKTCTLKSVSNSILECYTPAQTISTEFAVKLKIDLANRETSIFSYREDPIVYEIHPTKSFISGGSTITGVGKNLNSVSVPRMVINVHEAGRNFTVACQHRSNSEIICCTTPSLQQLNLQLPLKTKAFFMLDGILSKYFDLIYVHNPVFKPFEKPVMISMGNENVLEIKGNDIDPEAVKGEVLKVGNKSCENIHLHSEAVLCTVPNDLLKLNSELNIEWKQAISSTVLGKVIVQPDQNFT

Row | Binder | Kd [1] [nM] | Kd [2] [µM] | binding result [3]
1 | Ac-GSWIICWWDNCGSSAPGGGK(fluorescein)-NH2 (cysteine pairing not given here) [571-C05 synthetic fluorescein-labeled peptide (SEQ ID NO: 001)] | 200 | 3.5 | –
2 | Ac-AGSWHCAGPPSFECWEFGTGGGK(fluorescein)-NH2 (cysteine pairing not given here) [331-G04 synthetic fluorescein-labeled peptide (SEQ ID NO: 055)] | 900 | 1.1 | –
3 | Ac-GSFFPCWRIDRFGYCHANAPGGGK(fluorescein)-NH2 (cysteine pairing not given here) [551-H10 synthetic fluorescein-labeled peptide (SEQ ID NO: 370)] | 220 | – | no binding
4 | Ac-GDYSECFFEPDSFEVKCYDRDPGGGK(fluorescein)-NH2 (cysteine pairing not given here) [545-H12 synthetic fluorescein-labeled peptide (SEQ ID NO: 399)] | 1150 | – | no binding
5 | Ac-AQHQYGQMMVLHIQYDMGEFIPGGGK(fluorescein)-NH2 [117-F08 synthetic fluorescein-labeled peptide (SEQ ID NO: 462)] | > 2000 | – | –
6 | Ac-AQSPYIFPIDDSGRQIFVIQWGGGGK(fluorescein)-NH2 [76-D09 synthetic fluorescein-labeled peptide (SEQ ID NO: 463)] | > 2000 | – | –
7 | Ac-AQVPDWLSAVVIEKLIEYGMMVGGGK(fluorescein)-NH2 [93-C08 synthetic fluorescein-labeled peptide (SEQ ID NO: 464)] | > 2000 | – | –
8 | Ac-AQKETWEFFDIVYGSGWKFNSPGGGK(fluorescein)-NH2 [116-H02 synthetic fluorescein-labeled peptide (SEQ ID NO: 466)] | > 2000 | – | –
9 | Ac-AQHSVQRQMDVWMPVQFMAGFTGGGK(fluorescein)-NH2 [02-B08 synthetic fluorescein-labeled peptide (SEQ ID NO: 467)] | > 2000 | – | –
10 | Ac-AQGFELWVDHTRNFFIAISPGGGK(fluorescein)-NH2 [127-A07 synthetic fluorescein-labeled peptide (SEQ ID NO: 469)] | 2400 | – | –
11 | Ac-AQEWEREYFVDGFWGSWFGIPHGGGK(fluorescein)-NH2 [130-E10 synthetic fluorescein-labeled peptide (SEQ ID NO: 472)] | 2600 | 7.65 | –
12 | Ac-AQHWDYDSGSDFWFPVFFLEHHGGGK(fluorescein)-NH2 [79-B02 synthetic fluorescein-labeled peptide (SEQ ID NO: 475)] | 1900 | – | –
13 | Ac-AQWPHDGLVHWGEVIMLRFGGGK(fluorescein)-NH2 [117-F04 synthetic fluorescein-labeled peptide (SEQ ID NO: 479)] | 1700 | – | –
14 | Ac-AQVEDMATVHFKFNPATHEVIWGGGK(fluorescein)-NH2 [524-H02 synthetic fluorescein-labeled peptide (SEQ ID NO: 492)] | 800 | – | –
15 | Ac-GSPEMCMMFPFLYPCNHHAPGGGK(fluorescein)-NH2 (cysteine pairing not given here) [548-F07 synthetic fluorescein-labeled peptide (SEQ ID NO: 369)] | – | – | no binding
